Assay results reported in US20240207462A1 (ABDERA THERAPEUTICS, published 2024).

Biological target: T1, human DLL3.FLAG (Adipogen #AG-40B-0151, amino acid 27-466) (human, UniProt Q9NYJ7 27-466)
T1 construct: range 27-466; The ELISA used human DLL3.FLAG or human DLL3.HIS (abcam #ab255797, amino acid 27-492); not shown: FLAG tag
T1 sequence (looked up): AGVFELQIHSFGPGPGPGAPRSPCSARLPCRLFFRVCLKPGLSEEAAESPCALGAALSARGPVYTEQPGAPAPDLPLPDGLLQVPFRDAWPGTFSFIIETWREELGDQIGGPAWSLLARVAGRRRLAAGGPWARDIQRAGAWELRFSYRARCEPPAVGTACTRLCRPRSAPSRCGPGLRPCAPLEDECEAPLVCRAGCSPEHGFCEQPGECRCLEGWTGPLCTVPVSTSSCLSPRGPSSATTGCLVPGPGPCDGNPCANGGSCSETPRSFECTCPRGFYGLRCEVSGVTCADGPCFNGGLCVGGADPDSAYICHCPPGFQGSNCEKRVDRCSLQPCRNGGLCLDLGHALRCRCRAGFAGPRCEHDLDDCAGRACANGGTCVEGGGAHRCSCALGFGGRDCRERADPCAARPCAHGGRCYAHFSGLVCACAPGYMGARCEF
Assay: ELISA, plate coated with hDLL3-Flag, goat anti-human IgG Fc-HRP, TMB, A450

B1: Rovalpituzumab (Creative Biolabs #TAB-216CL) (antibody, V domains shown)
VH: QVQLVQSGAEVKKPGASVKVSCKASGYTFTNYGMNWVRQAPGQGLEWMGWINTYTGEPTYADDFKGRVTMTTDTSTSTAYMELRSLRSDDTAVYYCARIGDSSPSDYWGQGTLVTVSS
VL: EIVMTQSPATLSVSPGERATLSCKASQSVSNDVVWYQQKPGQAPRLLIYYASNRYTGIPARFSGSGSGTEFTLTISSLQSEDFAVYYCQQDYTSPWTFGQGTKLEIK
EC50 (read off the curve): ~0.08 nM
